Literature values, collected in paper PMC8296306.
pKd: −log10 of the molar value.

Experiments:
Cxcl1/KC (Mus musculus) = Cxcl1/KC (Mus musculus) (UniProt P12850)
[1] = biological target: Cxcl2/MIP2 (Mus musculus) (UniProt P10889)

Row | pKd (Cxcl1/KC (Mus musculus)) | pKd [1] | Substance
1 | 4.46 | – | Cxcl1/KC (from UniProt P12850)
2 | – | 4.82 | Cxcl2/MIP2 (from UniProt P10889)
